Measured values reported in paper PMC5372463, “Bacterial kinesin light chain (Bklc) links the Btub cytoskeleton to membranes” (Scientific Reports, 2017).

Target: T1, BtubA/B heterodimer (bacterial tubulin) from Prosthecobacter dejongeii (Prosthecobacter dejongeii, UniProt Q8GCC5 1-473; Q8GCC1 1-426)
T1 construct: The same preparation stood as soluble (non-polymerized) heterodimer or, in polymerization buffer with GTP, as filaments; the assay tells which; Construct was a gift from JM; Andreu; also called Btubs; Btub filaments; source: E. coli C41 (DE3), co-expressed from a bicistronic construct, purified (polymerization/depolymerization cycle, SEC)
T1 sequence (looked up) 1: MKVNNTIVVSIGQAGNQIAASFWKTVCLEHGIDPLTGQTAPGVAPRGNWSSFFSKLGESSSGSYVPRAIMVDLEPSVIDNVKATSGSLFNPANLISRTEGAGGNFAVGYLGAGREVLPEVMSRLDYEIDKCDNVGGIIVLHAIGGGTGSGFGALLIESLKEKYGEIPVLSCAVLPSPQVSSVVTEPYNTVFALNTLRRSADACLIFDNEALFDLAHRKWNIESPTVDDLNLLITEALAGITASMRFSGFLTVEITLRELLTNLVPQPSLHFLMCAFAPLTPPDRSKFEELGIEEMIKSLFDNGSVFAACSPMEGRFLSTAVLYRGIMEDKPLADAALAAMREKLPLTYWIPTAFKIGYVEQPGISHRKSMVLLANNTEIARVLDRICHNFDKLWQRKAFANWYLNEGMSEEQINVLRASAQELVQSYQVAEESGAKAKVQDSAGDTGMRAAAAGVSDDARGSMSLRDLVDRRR
T1 sequence (looked up) 2: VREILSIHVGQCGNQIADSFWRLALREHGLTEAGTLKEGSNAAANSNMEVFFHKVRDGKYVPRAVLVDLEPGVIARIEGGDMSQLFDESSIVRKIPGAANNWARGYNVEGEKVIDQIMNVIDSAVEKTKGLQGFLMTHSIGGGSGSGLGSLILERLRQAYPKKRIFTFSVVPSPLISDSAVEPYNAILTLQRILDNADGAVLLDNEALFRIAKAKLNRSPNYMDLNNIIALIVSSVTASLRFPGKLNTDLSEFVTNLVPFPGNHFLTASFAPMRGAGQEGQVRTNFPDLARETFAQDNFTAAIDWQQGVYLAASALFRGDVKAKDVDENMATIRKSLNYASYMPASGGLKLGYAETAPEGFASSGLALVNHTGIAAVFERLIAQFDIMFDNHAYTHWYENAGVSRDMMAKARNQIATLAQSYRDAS
Assay: co-sedimentation; 10 μM BtubA/B with 10 or 20 μM Bklc in polymerization buffer (20 mM TrisHCl pH 7.5, 300 mM potassium glutamate, 5 mM MgCl2, 1 mM EGTA, 2 mM GTP), 10 min 25 °C, 100.000 x g 30 min; pellet depolymerized at 4 °C (S2); densitometry of Coomassie gels
Conditions: both partners purified

stoichiometry N: ~1 Bklc monomer per BtubA/B heterodimer
B1: Bacterial kinesin light chain (Bklc) from Prosthecobacter vanneervenii, C-terminal poly-histidine tag (natural protein, UniProt A8Y5U5 1-256, looked up)
chain: MDTALERQIASASRSVEEARRLAYHDPIRVGALVEQISVLADLRQKEGDFRKAESLYREALFRAQELRKQDPDLLTGIYSLLAHLYDRWGRMDKAAEFYELALKISAENGLEESDKVATIKNNLAMIFKQLRKFERAEGYYCEALETFQRLDGEQSARVASVYNNLGVLYYSHMDVDRAQVMHERALAIRQNLHEGQMDPADLSQTFINLGAVYKAAGDFQKAEACVDRAKRIRAAMNGYHPNPRRSASLLIDKSL
notes: Bklc (bacterial kinesin light chain), Prosthecobacter vanneervenii; Uniprot id A8Y5U5_9BACT; GenBank CAP16140.1; the bklc gene was expressed from pHis17; Construct was a gift from M. Pilhofer; Monomer by SEC and AUC; also called Bklc-His; source: E. coli C41 (DE3), purified (Ni-NTA, SEC); not shown: His-tag, C-terminal, kept
